B1: PS612: polypeptide with tandem copies of two different ClpS monomers (atClpS2-V1 and PS372) (protein)
chain: MSDSPVDLKPKPKVKPKLERPKLYKVMLLNDDYTPMSFVTVVLKAVFRMSEDTGRRVMMTAHRFGSAVVVVCERDIAETKAKEATDLGKEAGFPLMFTTEPEEGSAGSAAGSGEFMAFPARGKTAPKNEVRRQPPYNVILLNDDDHTYRYVIEMLQKIFGFPPEKGFQIAEEVDRTGRVILLTTSKEHAELKQDQVHSYGPDPYLGRPCSGSMTCVIEPAVGGSHHHHHHHHHHGGGSGGGSGGGSGLNDFFEAQKIEWHEGGGSGGGSGGGSGLNDFFEAQKIEWHE
B2: Synechococcus elongatus ClpS2: ClpS protein, SEQ ID NO: 106 (protein, listed as Synechococcus elongatus)
chain: MSPQPDESVLSILGVPRPCVKKRSRNDAFVLTVLTCSLQAIAAPATAPGTTTTRVRQPYPHFRVIVLDDDVNTFQHVAECLLKYIPGMTGDRAWDLTNQVHYEGAATVWSGPQEQAELYHEQLRREGLTMAPLEAA
B3: PS703 (protein)
chain: MSDSPVDLKPKPKVKPKLERPKLYKVMLLNDDYTPMSFVTVVLKAVFRMSEDTGRRVMMTAHRFGSAVVVVCERDIAETKAKEATDLGKEAGFPLMFTTEPEEGSAGSAAGSGEFMDKDCEMKRTTLDSPLGKLELSGCEQGLHEIKLLGKGTSAADAVEVPAPAAVLGGPEPLMQATAWLNAYFHQPEAIEEFPVPALHHPVFQQESFTRQVLWKLLKVVKFGEVISYQQLAALAGNPAATAAVKTALSGNPVPILIPCHRVVSSSGAVGGYEGGLAVKEWLLAHEGHRLGKPGLGGSAGSAAGSGEFHHHHHHHHHHGGGSGGGSGGGSGLNDFFEAQKIEWHEGGGSGGGSGGGSGLNDFFEAQKIEWHE
B4: PS704 (protein)
chain: MSDSPVDLKPKPKVKPKLERPKLYKVMLLNDDYTPMSFVTVVLKAVFRMSEDTGRRVMMTAHRFGSAVVVVCERDIAETKAKEATDLGKEAGFPLMFTTEPEEGSAGSAAGSGEFMDKDCEMKRTTLDSPLGKLELSGCEQGLHEIKLLGKGTSAADAVEVPAPAAVLGGPEPLMQATAWLNAYFHQPEAIEEFPVPALHHPVFQQESFTRQVLWKLLKVVKFGEVISYQQLAALAGNPAATAAVKTALSGNPVPILIPCHRVVSSSGAVGGYEGGLAVKEWLLAHEGHRLGKPGLGMDKDCEMKRTTLDSPLGKLELSGCEQGLHEIKLLGKGTSAADAVEVPAPAAVLGGPEPLMQATAWLNAYFHQPEAIEEFPVPALHHPVFQQESFTRQVLWKLLKVVKFGEVISYQQLAALAGNPAATAAVKTALSGNPVPILIPCHRVVSSSGAVGGYEGGLAVKEWLLAHEGHRLGKPGLGGSAGSAAGSGEFHHHHHHHHHHGGGSGGGSGGGSGLNDFFEAQKIEWHEGGGSGGGSGGGSGLNDFFEAQKIEWHE
B5: PS638: two copies of PS557 in tandem separated by Linker 2 (protein)
chain: MPTAASATESAIEDTPAPARPEVDGRTKPKRQPRYHVVLWNDDDHTYQYVVVMLQSLFGHPPERGYRLAKEVDTQGRVIVLTTTREHAELKRDQIHAFGYDRLLARSKGSMKASIEAEEGSAGSAAGSGEFMPTAASATESAIEDTPAPARPEVDGRTKPKRQPRYHVVLWNDDDHTYQYVVVMLQSLFGHPPERGYRLAKEVDTQGRVIVLTTTREHAELKRDQIHAFGYDRLLARSKGSMKASIEAEEGGSHHHHHHHHHHGGGSGGGSGGGSGLNDFFEAQKIEWHEGGGSGGGSGGGSGLNDFFEAQKIEWHE
B6: PS696 (protein)
chain: MPTAASATESAIEDTPAPARPEVDGRTKPKRQPRYHVVLWNDDDHTYQYVVVMLQSLFGHPPERGYRLAKEVDTQGRVIVLTTTREHAELKRDQIHAFGYDRLLARSKGSMKASIEAEEGSAGSAAGSGEFMDKDCEMKRTTLDSPLGKLELSGCEQGLHEIKLLGKGTSAADAVEVPAPAAVLGGPEPLMQATAWLNAYFHQPEAIEEFPVPALHHPVFQQESFTRQVLWKLLKVVKFGEVISYQQLAALAGNPAATAAVKTALSGNPVPILIPCHRVVSSSGAVGGYEGGLAVKEWLLAHEGHRLGKPGLGGSAGSAAGSGEFHHHHHHHHHHGGGSGGGSGGGSGLNDFFEAQKIEWHEGGGSGGGSGGGSGLNDFFEAQKIEWHE
B7: PS614: polypeptide with two copies of the ClpS binder PS372 oriented in tandem (protein)
chain: MAFPARGKTAPKNEVRRQPPYNVILLNDDDHTYRYVIEMLQKIFGFPPEKGFQIAEEVDRTGRVILLTTSKEHAELKQDQVHSYGPDPYLGRPCSGSMTCVIEPAVGSAGSAAGSGEFMAFPARGKTAPKNEVRRQPPYNVILLNDDDHTYRYVIEMLQKIFGFPPEKGFQIAEEVDRTGRVILLTTSKEHAELKQDQVHSYGPDPYLGRPCSGSMTCVIEPAVGGSHHHHHHHHHHGGGSGGGSGGGSGLNDFFEAQKIEWHEGGGSGGGSGGGSGLNDFFEAQKIEWHE
B8: PS639: two copies of PS557 in tandem separated by Linker 3 (protein)
chain: MPTAASATESAIEDTPAPARPEVDGRTKPKRQPRYHVVLWNDDDHTYQYVVVMLQSLFGHPPERGYRLAKEVDTQGRVIVLTTTREHAELKRDQIHAFGYDRLLARSKGSMKASIEAEEGSAGSAAGSGEFGSAGSAAGSGEFGSAGSAAGSGEFMPTAASATESAIEDTPAPARPEVDGRTKPKRQPRYHVVLWNDDDHTYQYVVVMLQSLFGHPPERGYRLAKEVDTQGRVIVLTTTREHAELKRDQIHAFGYDRLLARSKGSMKASIEAEEGGSHHHHHHHHHHGGGSGGGSGGGSGLNDFFEAQKIEWHEGGGSGGGSGGGSGLNDFFEAQKIEWHE
B9: PS705 (protein)
chain: MSDSPVDLKPKPKVKPKLERPKLYKVMLLNDDYTPMSFVTVVLKAVFRMSEDTGRRVMMTAHRFGSAVVVVCERDIAETKAKEATDLGKEAGFPLMFTTEPEEHHHHHHHHHHGGGSGGGSGGGSGLNDFFEAQKIEWHEGGGSGGGSGGGSGLNDFFEAQKIEWHEGSAGSAAGSGEFMDKDCEMKRTTLDSPLGKLELSGCEQGLHEIKLLGKGTSAADAVEVPAPAAVLGGPEPLMQATAWLNAYFHQPEAIEEFPVPALHHPVFQQESFTRQVLWKLLKVVKFGEVISYQQLAALAGNPAATAAVKTALSGNPVPILIPCHRVVSSSGAVGGYEGGLAVKEWLLAHEGHRLGKPGLG
B10: PS637: two copies of PS557 in tandem separated by Linker 1 (protein)
chain: MPTAASATESAIEDTPAPARPEVDGRTKPKRQPRYHVVLWNDDDHTYQYVVVMLQSLFGHPPERGYRLAKEVDTQGRVIVLTTTREHAELKRDQIHAFGYDRLLARSKGSMKASIEAEEGGGSGGGSGGGSGMPTAASATESAIEDTPAPARPEVDGRTKPKRQPRYHVVLWNDDDHTYQYVVVMLQSLFGHPPERGYRLAKEVDTQGRVIVLTTTREHAELKRDQIHAFGYDRLLARSKGSMKASIEAEEGGSHHHHHHHHHHGGGSGGGSGGGSGLNDFFEAQKIEWHEGGGSGGGSGGGSGLNDFFEAQKIEWHE

Columns and labels:
[1] = system: peptides with different N-terminal amino acids, penultimate alanine; experiment: Biolayer interferometry of multivalent amino acid binders; format: binding
Description: The amino acid binding profile of each Bis-atClpS2-V1 binder (PS609, PS610, and PS611) was evaluated by biolayer interferometry as described above. The monovalent atClpS2-V1 was run as a control. Measurements with each binder were carried out for the amino acids F, Y, and W, along with I, L, M, and V as negative controls. All peptides contained a penultimate alanine (A). Response curves for the tandem binders PS609, PS610, and PS611 are shown in FIGS. 35B, 35C, and 35D, respectively.
The multivalent binder PS612 is a polypeptide that contains tandem copies of two different ClpS protein monomers (atClpS2-V1 and PS372). The amino acid binding profile of PS612 was evaluated by biolayer interferometry as described above. The monovalent binders atClpS2-V1 and PS372 were separately run as controls.
The multivalent binder PS614 is a polypeptide that contains two copies of the ClpS binder PS372 oriented in tandem. The amino acid binding profile of PS614 was evaluated by biolayer interferometry as described above.
The multivalent binders PS637, PS638, and PS639 are polypeptides that each contain two copies of the ClpS binder PS557 oriented in tandem and separated by Linker 1, Linker 2, and Linker 3, respectively. The amino acid binding profiles of each binder was evaluated by biolayer interferometry as described above.

[2] = system: amino acid at a terminal position of a polypeptide; experiment: Amino acid binding preference of recognition proteins (Tables 1 and 2); conditions: Table 1, ClpS proteins; amino acid identity at a terminal position of a polypeptide; inferred from literature and/or demonstrated by the inventors
Description: It should be appreciated that these sequences and other examples described herein are meant to be non-limiting, and recognition molecules in accordance with the application can include any homologs, variants thereof, or fragments thereof minimally containing domains or subdomains responsible for peptide recognition.

[3] = system: N-terminal amino acids of peptides; experiment: Single-molecule terminal amino acid recognition by labeled recognition molecule (dwell time analysis); format: binding
Description: An adaptor protein involved in proteolytic pathways was identified as a potential candidate for use as a labeled recognition molecule for detecting N-terminal aromatic residues. The adaptor protein, ClpS2 from an α-proteobacterium (A. tumefaciens), was expressed and labeled at an exposed cysteine residue. […] The exposed cysteine residue was labeled with a rhodamine dye (ATTO 532).
Peptides having different N-terminal aromatic residues were prepared to test whether the labeled ClpS2 was capable of N-terminal amino acid discrimination at the single molecule level.
FIG. 19C is a plot showing discriminant pulse durations (time duration of signal peaks) among the three N-terminal residues when reversibly bound by labeled ClpS2. FIG. 19D is a plot showing discriminant interpulse durations (time duration between signal pulses) among the three N-terminal residues. […] Mean pulse duration for the different N-terminal residues is visualized by histograms (A)-(B) and layered histogram (C).

[4] = system: labeled N-terminal FA peptide; experiment: Stopped-flow dissociation rate (koff), atClpS2-V1 derivatives; format: binding; conditions: excess unlabeled trap peptide
Description: (§1) To measure the dissociation rate (koff) by stopped-flow, complexes of binder bound to labeled peptide substrate at an optimal concentration were rapidly mixed with excess unlabeled trap peptide. […] The averaged raw traces were fitted with an exponential equation to determine the koff (FIG. 37B, bottom panel).

[5] = system: labeled N-terminal LA peptide; experiment: Stopped-flow dissociation rate (koff), PS557 derivatives; format: binding; conditions: excess unlabeled trap peptide
Description: as §1

Molecule	N-terminal amino acids bound (biolayer interferometry) [1]	FA koff [4]	also measured
B1	N-terminal F, W, Y, I, L, and V		
B2			Binding Pref. [2]: F, W, Y, L; recognition of terminal amino acids (dwell time analysis) [3]: leucine recognition
B3		0.7674 s⁻¹	
B4		0.6774 s⁻¹	
B5	N-terminal I, L, and V		
B6			LA koff [5]: 0.15 s⁻¹
B7	N-terminal I, L, and V		
B8	N-terminal I, L, and V		
B9		1.2655 s⁻¹	
B10	N-terminal I, L, and V		

Reference: patent US12065466B2, “Methods and compositions for protein sequencing” (Quantum-Si Incorporated, priority 2020, dated 2024)
